Measurements as given in IntAct's records for PubMed 21926999.

Target: ARHGAP24, Q8N264-1
Sequence (Q8N264 whole entry): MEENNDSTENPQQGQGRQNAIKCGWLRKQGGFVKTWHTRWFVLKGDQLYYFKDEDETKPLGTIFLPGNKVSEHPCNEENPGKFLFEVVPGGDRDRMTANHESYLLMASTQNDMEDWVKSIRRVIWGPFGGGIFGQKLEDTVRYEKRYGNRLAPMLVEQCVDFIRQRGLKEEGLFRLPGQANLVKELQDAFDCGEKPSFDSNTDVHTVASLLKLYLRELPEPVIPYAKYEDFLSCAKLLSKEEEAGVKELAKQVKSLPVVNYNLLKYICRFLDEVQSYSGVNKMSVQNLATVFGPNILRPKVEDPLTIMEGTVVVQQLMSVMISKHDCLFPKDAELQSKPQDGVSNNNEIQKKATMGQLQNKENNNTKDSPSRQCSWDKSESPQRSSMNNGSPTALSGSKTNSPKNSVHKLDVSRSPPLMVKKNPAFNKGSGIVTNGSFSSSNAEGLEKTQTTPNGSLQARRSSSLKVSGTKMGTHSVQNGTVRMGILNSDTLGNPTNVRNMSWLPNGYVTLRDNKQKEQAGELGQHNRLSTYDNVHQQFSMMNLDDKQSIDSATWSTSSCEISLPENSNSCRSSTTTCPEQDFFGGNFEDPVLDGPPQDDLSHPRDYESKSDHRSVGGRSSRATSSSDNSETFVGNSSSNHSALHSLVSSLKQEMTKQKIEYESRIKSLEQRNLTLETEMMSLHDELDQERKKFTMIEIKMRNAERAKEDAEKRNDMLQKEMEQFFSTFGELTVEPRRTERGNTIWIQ

In the case of Filamin-A (Homo sapiens), P21333 M2474E, the “effect of a mutation on the interaction” value is reported as “disrupting interaction”.
